The text below walks through data of article PMC9166294, “Patched 1 regulates Smoothened by controlling sterol binding to its extracellular cysteine-rich domain” (Science Advances, 2022).

Assay [1] deals with T1, PTCH1 (Patched 1) (Mus musculus, UniProt Q61115).
T1 construct: full-length PTCH1-WT with C-terminal 1D4 tag
T1 sequence (Q61115 1-1434): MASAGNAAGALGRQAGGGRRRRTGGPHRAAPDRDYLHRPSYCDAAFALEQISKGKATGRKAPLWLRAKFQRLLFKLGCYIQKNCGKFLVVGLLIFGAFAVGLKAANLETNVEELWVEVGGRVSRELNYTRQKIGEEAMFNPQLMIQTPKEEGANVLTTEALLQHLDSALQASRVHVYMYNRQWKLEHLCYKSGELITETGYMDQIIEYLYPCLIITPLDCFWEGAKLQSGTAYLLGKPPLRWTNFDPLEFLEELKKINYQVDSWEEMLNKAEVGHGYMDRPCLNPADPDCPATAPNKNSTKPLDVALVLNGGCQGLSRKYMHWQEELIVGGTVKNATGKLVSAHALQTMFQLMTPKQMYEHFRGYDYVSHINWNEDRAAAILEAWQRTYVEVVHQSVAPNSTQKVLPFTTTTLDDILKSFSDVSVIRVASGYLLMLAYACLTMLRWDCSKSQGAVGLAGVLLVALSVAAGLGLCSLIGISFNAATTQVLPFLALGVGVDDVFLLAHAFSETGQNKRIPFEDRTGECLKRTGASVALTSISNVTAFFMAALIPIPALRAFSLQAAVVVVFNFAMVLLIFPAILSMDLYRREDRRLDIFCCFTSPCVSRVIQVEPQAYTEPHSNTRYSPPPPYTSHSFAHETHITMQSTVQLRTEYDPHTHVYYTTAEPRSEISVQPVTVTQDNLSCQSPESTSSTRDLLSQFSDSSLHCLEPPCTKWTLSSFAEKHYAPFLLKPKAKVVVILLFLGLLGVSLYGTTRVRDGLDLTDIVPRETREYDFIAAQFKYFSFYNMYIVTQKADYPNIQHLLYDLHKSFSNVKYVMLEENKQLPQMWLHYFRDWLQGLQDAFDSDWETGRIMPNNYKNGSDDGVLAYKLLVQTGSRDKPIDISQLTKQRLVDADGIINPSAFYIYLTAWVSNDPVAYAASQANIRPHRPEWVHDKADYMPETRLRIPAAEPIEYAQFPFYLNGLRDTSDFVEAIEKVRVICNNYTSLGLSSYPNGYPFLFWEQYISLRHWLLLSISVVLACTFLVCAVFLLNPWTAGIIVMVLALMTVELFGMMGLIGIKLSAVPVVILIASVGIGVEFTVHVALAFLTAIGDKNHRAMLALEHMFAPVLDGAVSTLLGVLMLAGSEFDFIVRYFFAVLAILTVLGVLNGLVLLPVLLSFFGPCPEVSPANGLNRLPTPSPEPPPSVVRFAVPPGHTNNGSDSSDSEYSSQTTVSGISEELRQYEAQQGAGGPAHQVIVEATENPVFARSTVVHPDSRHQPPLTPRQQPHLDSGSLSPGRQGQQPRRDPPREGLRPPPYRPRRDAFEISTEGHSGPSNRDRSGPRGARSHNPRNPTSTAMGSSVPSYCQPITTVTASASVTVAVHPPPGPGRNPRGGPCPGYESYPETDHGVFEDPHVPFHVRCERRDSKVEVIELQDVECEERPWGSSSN
The assay can be described thus: UV photocrosslinking in intact cells, immunoprecipitation and click-biotin detection. The assay is classed as cell-based. The source says:
UV photocrosslinking in intact cells, immunoprecipitation and click-biotin detection on PTCH1 (Patched 1) | PTCH1 itself could be photolabeled by 6-azi-20(S)-yne. Labeling of PTCH1 by 6-azi-20(S)-yne was diminished by SHH

Assay [2] deals with T2, hSMOΔC (Homo sapiens, UniProt Q99835).
T2 construct: Smoothened (SMO), human, UniProt Q99835, amino acid residues 32 to 555, lacks the disordered C-terminal cytoplasmic tail; Purified in detergent (GDN/CHS); Cloned into pHR-CMV-TetO2 (Addgene plasmid no. 113883) with a 3C-protease cleavable mVenus-1D4 tag; called nonfluorescent in the FSEC assay; also called human Smoothened lacking its C-terminal cytoplasmic tail; hSMO∆C; not shown: HA, …
T2 sequence (Q99835 32-555, stated change not applied): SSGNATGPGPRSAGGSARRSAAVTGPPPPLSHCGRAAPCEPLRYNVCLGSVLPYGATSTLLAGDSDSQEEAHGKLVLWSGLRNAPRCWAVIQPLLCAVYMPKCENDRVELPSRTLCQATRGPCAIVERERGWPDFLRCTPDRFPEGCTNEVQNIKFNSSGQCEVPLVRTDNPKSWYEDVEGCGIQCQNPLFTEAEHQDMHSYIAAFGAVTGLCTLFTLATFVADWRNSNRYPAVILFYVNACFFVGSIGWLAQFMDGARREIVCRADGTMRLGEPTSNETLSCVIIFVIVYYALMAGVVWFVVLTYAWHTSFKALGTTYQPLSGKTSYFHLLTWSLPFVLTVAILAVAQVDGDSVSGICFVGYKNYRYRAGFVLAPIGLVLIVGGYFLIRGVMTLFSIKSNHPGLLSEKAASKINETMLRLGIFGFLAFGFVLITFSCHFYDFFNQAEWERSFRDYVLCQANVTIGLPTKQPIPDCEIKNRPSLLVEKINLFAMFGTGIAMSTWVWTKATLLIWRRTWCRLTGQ
The assay can be described thus: SEC; fluorescence-detection size exclusion chromatography (FSEC); purified hSMOΔC variants and Nb8-mVenus incubated 1 hour in 200 μl, no added ligands; Superose 6 Increase 3.2/300 in 10 mM Hepes pH 7.5, 150 mM NaCl, 0.02% GDN, 0.002% CHS; mVenus fluorescence followed. The settings on record: both partners purified. (In gel filtration, larger molecules generally elute earlier.)

Assay [3] addresses T3, hSMOΔC-ΔCRD (Homo sapiens, UniProt Q99835).
T3 construct: Smoothened (SMO), human, UniProt Q99835, amino acid residues 190 to 555, lacks the cysteine-rich domain and the C-terminal cytoplasmic tail; Purified in detergent (GDN/CHS); also called hSMOΔC lacking the CRD; not shown: mVenus, C-terminal, cleaved; 1D4, C-terminal, cleaved
The description is as above. The settings on record: both partners purified.

T3 sequence (Q99835 190-555, stated change not applied): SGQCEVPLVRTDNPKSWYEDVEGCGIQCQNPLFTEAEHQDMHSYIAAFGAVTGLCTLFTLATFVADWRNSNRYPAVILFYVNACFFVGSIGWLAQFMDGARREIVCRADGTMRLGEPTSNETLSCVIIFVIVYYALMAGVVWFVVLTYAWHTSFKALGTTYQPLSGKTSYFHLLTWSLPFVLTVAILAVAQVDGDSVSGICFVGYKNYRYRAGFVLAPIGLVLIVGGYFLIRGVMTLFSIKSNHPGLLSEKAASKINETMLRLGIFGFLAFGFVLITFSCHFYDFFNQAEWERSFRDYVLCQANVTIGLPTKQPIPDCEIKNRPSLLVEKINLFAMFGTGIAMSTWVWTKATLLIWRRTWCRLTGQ

In the case of `C#CCC[C@](C)(O)[C@H]1CC[C@H]2[C@@H]3CC4(N=N4)[C@H]4C[C@@H](O)CC[C@]4(C)[C@H]3CC[C@@]21C` [6-azi-20(S)-yne], the “UV photocrosslinking in intact cells, immunoprecipitation and click-biotin detec” value in assay [1] was “PTCH1 itself could be photolabeled by 6-azi-20(S)-yne. Labeling of PTCH1 by 6-azi-20(S)-yne was diminished by SHH”.

B1: Nb8-mVenus (VHH)
VHH: QVQLQESGGGLVQAGGSLRLSCAASGYIFSSYAMGWYRQAPGKEREFVATIGWGTITYYADSVKGRFTISRDNAKNTVYLQMNSLKPEDTAVYYCAAQDLLYYSFPGDHAYWGQGTQVTVSS
notes: Fused at its C terminus to a HRV3C-mVenus-12His fragment (HRV3C protease site between Nb8 and mVenus); the only Nb8 construct described is this one; also called active-conformation specific nanobody Nb8; active-state selective Nb8; not shown: mVenus, C-terminal, kept; 12His, C-terminal, kept
For B1, the binding result in assay [2] and in assay [3] was “binds” throughout.
